In patent publication US20240301043A1 (Q32 BIO, published 2024):
Positions count from the first letter of the chain named. Numbers in names are those of the source. Where two headings read alike, the source gives them in different places.

B1: Exemplary anti-C3d construct 55 (antibody, mouse IgG1, kappa, V domains shown)
VH: EVQLQQSGPVLVKPGASVKMSCKASGYTFTAYYMNWVRQSHGKSLEWIGVINPYNGGTSYNQKFKGKATLTVDKSSSTAYMELNSLTSEDSAVYYCSSPYWGQGTSVTVSS
VL: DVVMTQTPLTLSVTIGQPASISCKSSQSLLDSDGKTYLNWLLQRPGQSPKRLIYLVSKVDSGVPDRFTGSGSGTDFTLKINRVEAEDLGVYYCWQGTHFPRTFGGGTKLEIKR
notes: also called Exemplary construct 55
B2: Exemplary anti-C3d construct 56 (Fab) (Fab, V domains shown)
VH: B1 VH
VL: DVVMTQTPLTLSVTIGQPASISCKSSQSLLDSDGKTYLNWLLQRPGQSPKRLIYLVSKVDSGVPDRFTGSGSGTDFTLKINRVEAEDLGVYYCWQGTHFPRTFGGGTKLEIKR
notes: also called Exemplary construct 56
B3: Exemplary anti-C3d construct 34 (antibody, mouse IgG1, kappa, V domains shown)
VH: B1 VH
VL: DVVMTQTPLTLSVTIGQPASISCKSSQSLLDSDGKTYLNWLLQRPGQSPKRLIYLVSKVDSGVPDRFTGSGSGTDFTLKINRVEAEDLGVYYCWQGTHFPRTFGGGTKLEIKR
notes: muHC2 murine IgG1 heavy chain and muLC2 murine kappa light chain; also called Exemplary construct 34
B4: Exemplary Fusion Construct 99 (other)
heavy: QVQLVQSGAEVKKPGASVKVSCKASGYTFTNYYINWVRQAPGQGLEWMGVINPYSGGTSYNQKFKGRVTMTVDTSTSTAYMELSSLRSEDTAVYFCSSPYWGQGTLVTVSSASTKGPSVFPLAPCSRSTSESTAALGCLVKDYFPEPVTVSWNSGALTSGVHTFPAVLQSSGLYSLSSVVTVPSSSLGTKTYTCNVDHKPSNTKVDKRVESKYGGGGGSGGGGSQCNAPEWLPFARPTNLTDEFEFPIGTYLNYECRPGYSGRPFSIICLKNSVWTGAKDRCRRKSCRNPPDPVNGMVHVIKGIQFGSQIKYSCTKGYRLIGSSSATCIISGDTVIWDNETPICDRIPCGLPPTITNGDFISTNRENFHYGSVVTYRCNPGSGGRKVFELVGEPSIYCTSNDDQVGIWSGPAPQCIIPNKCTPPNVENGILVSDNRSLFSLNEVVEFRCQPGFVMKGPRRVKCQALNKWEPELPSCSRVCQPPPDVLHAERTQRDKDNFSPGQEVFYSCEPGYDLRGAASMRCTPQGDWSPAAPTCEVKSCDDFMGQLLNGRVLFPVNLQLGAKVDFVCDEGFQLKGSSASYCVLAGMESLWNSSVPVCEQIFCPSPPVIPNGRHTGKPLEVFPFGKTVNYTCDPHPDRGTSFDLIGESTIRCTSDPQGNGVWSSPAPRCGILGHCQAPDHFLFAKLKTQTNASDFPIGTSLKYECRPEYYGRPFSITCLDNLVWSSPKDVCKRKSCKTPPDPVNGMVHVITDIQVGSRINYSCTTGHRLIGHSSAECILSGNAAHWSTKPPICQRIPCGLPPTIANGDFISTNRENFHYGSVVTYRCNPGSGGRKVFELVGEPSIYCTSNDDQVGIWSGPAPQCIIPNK
light: DVVMTQSPLSLPVTLGQPASISCKSSQSLLDSDGKTYLNWFQQRPGQSPRRLIYLVSKLDSGVPDRFSGSGSGTDFTLKISRVEAEDVGVYYCWQGTHFPRTFGGGTKVEIKRTVAAPSVFIFPPSDEQLKSGTASVVCLLNNFYPREAKVQWKVDNALQSGNSQESVTEQDSKDSTYSLSSTLTLSKADYEKHKVYACEVTHQGLSSPVTKSFNRGEC
notes: Order chain, linker, modulator follows claim 321
B5: Exemplary anti-C3d construct 74 (antibody, V domains shown)
VH: QVQLVQSGAEVKKPGASVKVSCKASGYTFTNYYINWVRQAPGQGLEWIGVINPYNGGTSYNQKFKGRATLTVDTSTSTAYMELSSLRSEDTAVYFCSSPYWGQGTLVTVSS
VL: DVVMTQSPLSLPVTLGQPASISCKSSQSLLDSDGKTYLNWFQQRPGQSPRRLIYLVSKLDSGVPDRFSGSGSGTDFTLKISRVEAEDVGVYYCWQGTHFPRTFGGGTKVEIK
notes: Humanized 3d8b VH4 / VK3; also called Exemplary construct 74
B6: Exemplary anti-C3d construct 93 (antibody, human IgG4 S228P, kappa, V domains shown)
VH: B5 VH with I48M, N55S, A68V, L70M
VL: DVVMTQSPLSLPVTLGQPASISCKSSQSLLDSDGKTYLNWFQQRPGQSPRRLIYLVSKLDSGVPDRFSGSGSGTDFTLKISRVEAEDVGVYYCWQGTHFPRTFGGGTKVEIKR
notes: also called Exemplary construct 93
B7: Exemplary anti-C3d construct 86 (antibody, human IgG4 S228P, kappa)
heavy: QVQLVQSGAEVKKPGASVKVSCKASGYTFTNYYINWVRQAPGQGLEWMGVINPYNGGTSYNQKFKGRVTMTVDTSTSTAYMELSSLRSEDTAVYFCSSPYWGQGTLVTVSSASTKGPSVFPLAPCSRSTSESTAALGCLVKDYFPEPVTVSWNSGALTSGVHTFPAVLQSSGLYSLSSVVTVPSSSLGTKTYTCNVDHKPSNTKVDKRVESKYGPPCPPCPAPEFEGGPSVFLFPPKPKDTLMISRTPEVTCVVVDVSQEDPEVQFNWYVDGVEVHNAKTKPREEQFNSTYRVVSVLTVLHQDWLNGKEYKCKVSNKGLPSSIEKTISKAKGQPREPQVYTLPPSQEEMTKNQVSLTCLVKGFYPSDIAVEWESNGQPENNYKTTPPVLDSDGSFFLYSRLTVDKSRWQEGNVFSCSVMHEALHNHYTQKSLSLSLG
light: B4 light
notes: HC1 (VH5) humanized IgG4 S228P/L235E; LC1 (Vk3) humanized kappa; also called Exemplary construct 86
B8: Exemplary anti-C3d construct 79 (antibody, V domains shown)
VH: B5 VH with I48M, N55S, A68V, L70M
VL: B5 VL
notes: Humanized 3d8b VH5 N54S / VK3; also called Exemplary construct 79
B9: Exemplary anti-C3d construct 77 (antibody, V domains shown)
VH: B5 VH with I48M, N55H, A68V, L70M
VL: B5 VL
notes: Humanized 3d8b VH5 N54H / VK3; also called Exemplary construct 77
B10: Exemplary anti-C3d construct 87 (antibody, human IgG4 S228P, kappa)
heavy: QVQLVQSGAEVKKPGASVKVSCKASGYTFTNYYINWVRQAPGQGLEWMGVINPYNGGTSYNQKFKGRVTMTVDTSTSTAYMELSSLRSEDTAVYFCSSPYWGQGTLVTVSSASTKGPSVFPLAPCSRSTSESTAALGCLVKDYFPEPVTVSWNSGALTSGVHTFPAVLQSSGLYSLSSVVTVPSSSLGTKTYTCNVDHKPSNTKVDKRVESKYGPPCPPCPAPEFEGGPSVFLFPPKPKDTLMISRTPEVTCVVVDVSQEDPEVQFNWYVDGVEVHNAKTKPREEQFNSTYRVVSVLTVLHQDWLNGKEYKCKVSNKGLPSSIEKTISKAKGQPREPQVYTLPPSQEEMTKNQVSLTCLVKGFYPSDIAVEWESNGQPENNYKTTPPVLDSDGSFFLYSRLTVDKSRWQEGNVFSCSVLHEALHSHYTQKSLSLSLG
light: B4 light
notes: also called Exemplary construct 87
B11: Exemplary anti-C3d construct 78 (antibody, V domains shown)
VH: B5 VH with N55S
VL: B5 VL
notes: Humanized 3d8b VH4 N54S / VK3; also called Exemplary construct 78
B12: Exemplary anti-C3d construct 75 (antibody, V domains shown)
VH: B5 VH with I48M, A68V, L70M
VL: B5 VL
notes: Humanized 3d8b VH5 / VK3; also called Exemplary construct 75
B13: Exemplary anti-C3d construct 76 (antibody, V domains shown)
VH: B5 VH with N55H
VL: B5 VL
notes: Humanized 3d8b VH4 N54H / VK3; also called Exemplary construct 76

Key:
human C3d [1] = molecular target: T1, human C3d (human, UniProt P01024 1002-1303); experiment: ELISA, human C3d coated on plate
T1 construct: domain: C3d; also called C3d antigen

human C3d [2] = molecular target: T1, human C3d; experiment: SPR (Biacore 3000), human C3d amine-coupled to CM5 chip, construct as analyte
human C3d [3] = molecular target: T1, human C3d; experiment: ELISA, human C3d coated on plate; remark: listed apart in the source
human C3d [4] = molecular target: T1, human C3d; experiment: ELISA, human C3d coated on plate; remark: listed apart in the source

T1 sequence (P01024 1002-1303 limits assumed): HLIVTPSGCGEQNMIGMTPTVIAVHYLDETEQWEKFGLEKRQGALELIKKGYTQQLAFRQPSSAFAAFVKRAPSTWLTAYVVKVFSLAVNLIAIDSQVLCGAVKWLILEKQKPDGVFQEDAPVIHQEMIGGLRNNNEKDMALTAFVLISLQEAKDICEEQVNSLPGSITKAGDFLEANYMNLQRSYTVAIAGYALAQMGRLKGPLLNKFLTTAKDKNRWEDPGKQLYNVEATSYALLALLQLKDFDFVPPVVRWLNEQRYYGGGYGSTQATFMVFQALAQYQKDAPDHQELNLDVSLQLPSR

| Binder | EC50 (human C3d [1]) | Kd (human C3d [2]) | EC50 (human C3d [3]) | EC50 (human C3d [4]) |
| --- | --- | --- | --- | --- |
| B1 | 240 pM |  |  |  |
| B2 | 550 pM | 910 pM |  |  |
| B3 | 320 pM | 888 pM |  |  |
| B4 |  |  | 1540 pM |  |
| B5 |  | 1340 pM |  | 17 pM |
| B6 |  | 10200 pM | 20 pM |  |
| B7 |  | 14700 pM | 30 pM | 30 pM |
| B8 |  |  |  | 20 pM |
| B9 |  |  |  | 11 pM |
| B10 |  | 7570 pM | 20 pM |  |
| B11 |  |  |  | 18 pM |
| B12 |  | 1630 pM |  | 29 pM |
| B13 |  |  |  | 18 pM |
